Source: patent US20250188151A1, “C-JUN ANTAGONIST PEPTIDES” (The University of Bath, priority 2022, published 2025)
Where a chain is given by its changes, count along the chain named. Entries after “also recorded” stand apart in the source; their conditions may differ. Where two headings read alike, the source gives them in different places. Numbered stars: 1 amine (or outer) side, 2 acyl side, 3 side chain; on linkers, the order of the positions; unused ones are H or OH. Bridge positions count the residues as written; N and C are the ends. Ends that are not written are not given here. mXylylene = c1cc(C[*:1])cc(C[*:2])c1

Legend:
[1] = target: c-Jun bZIP (expressed in E. coli) (Homo sapiens) (UniProt P05412); experiment: cell_activity; conditions: TBS assay
[2] = target: T1, cJun bZIP/TRE DNA interaction (transcriptional block of TRE-mDHFR) (Homo sapiens, UniProt P05412, S292Y); experiment: Transcription Block Survival (TBS) assay: colony counting and growth competition in E. coli; type: cell-based; conditions: vs transcriptionally blocked cells (TRE-mDHFR + cJun bZIP)
T1 construct: expressed in transfected cells; host or cells: E. coli BL21 Gold carrying pES300d-TRE-mDHFR and pES230d-cJun bZIP
Description: Library Construction and TBS Assay: Library inserts were produced using PCR fill-in reactions from synthesised primers (Sigma) with degenerate codons at the desired positions to produce the correct residue options. The library was subcloned using SacI and AscI sites into the pET24a plasmid containing A-FosW. The primers used were cJun-Hinge-Lib-F: 5′-[…] TATGCC-3′ (SEQ ID NO: 49) and cJun-Hinge-Lib_R: 5′-[…] GTTC-3′ (SEQ ID NO: 50). The library DNA was transformed into NEB 10-beta electrocompetent E. coli cells. The following equation was utilised to determine library coverage by the number of single colonies: E=100×(1−1/n)^m where E is the percentage of the library missing, m is the number of colonies collected and n is the library size. […] Library DNA quality was assessed by sequencing both the DNA pool and a number of single colonies to show degenerate codons in the correct positions in the pool and to show a diversity of library members from single colonies. The pool of library DNA was transformed into BL21 Gold cells already containing pES300d-TRE-mDHFR and pES230d-cJun bZIP.
Selective pressure is applied by growing the bacteria in M9 minimal media with TMP (2-4 μM) alongside ampicillin, kanamycin and chloramphenicol to maintain the required plasmids, and IPTG (1 mM) to induce protein expression. The library transformants were first plated out onto selective agar plates (2 μM TMP) and grown at 37° C. for 72-96 h. Optimisation experiments (FIG. 5) indicate that 4 μM TMP is optimum for selection however a lower stringency is used initially before selection is increased in later steps. Colonies from this first round of selection were pooled and serially grown in liquid culture at starting OD600 of 0.05 and grown at 37° C. with shaking at 200 rpm until the OD600 reached 0.6. TMP concentration was 2 μM in the first liquid culture passage before it was increased to the optimum 4 μM in subsequent passages. […] At each passage step, a sample of the culture was plated on LB agar (supplemented with antibiotics to maintain plasmids) to select and sequence individual colonies, and a DNA pool was also sequenced. This allows the occurrence of library members to be monitored as winner sequences are selected for. Assay Validation experiments utilised a modified assay methodology whereby overnight cultures from glycerol stocks of the Control Strains (Table 2) were diluted to OD600=0.5 and 50 μL was plated on a selective M9 minimal medium agar plate.
Transcription block survival (TBS) is an intracellular assay that utilises cell survival as a readout. […] This enzyme is absolutely essential for survival since it is required for the production of purines needed for DNA and amino acid synthesis. […]. We produced a mDHFR gene (FIGS. 2 and 3) by rational design to introduce 15 TRE sites into the coding DNA sequence to allow a robust cJun transcriptional block whilst minimising alteration to the expressed protein (TRE-mDHFR). In particular, the resulting TRE-mDHFR construct was produced via two silent and thirteen conservative mutations. […] The accessible surface areas of all other amino acid residues were calculated using the ‘Accessible Surface Area and Accessibility Calculation for Protein’ tool (http://cib.cf.ocha.ac.jp/bitool/ASA/). […]

cJun bZIP [3] = target: cJun bZIP (Homo sapiens, UniProt P05412, S292Y); experiment: CD spectra and thermal denaturation of peptide/cJun heterodimers; conditions: for Tm (° C.) (CD): heterodimer with cJun bZIP, Example 1
HingeW = target: T2, HingeW (synthetic construct); experiment: CD, DNA spectrum unchanged; conditions: tags: C-terminal 6xHis
T2 chain: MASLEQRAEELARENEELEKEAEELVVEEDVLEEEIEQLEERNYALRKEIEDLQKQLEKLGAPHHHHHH

A-FosW = target: T3, A-FosW (synthetic construct); experiment: CD, DNA spectrum unchanged; conditions: tags: C-terminal 6xHis
T3 chain: T2 chain with V26E, V27Q, E29L, V31E, E33Q, E34A

cJun bZIP [4] = target: T4, cJun bZIP (human, UniProt P05412 252-308, limits assumed)
T4 construct: Purified from a His-SUMO fusion with the tag cleaved off; also called c-Jun bZIP domain; 60 amino acid c-Jun bZIP construct
T4 chain: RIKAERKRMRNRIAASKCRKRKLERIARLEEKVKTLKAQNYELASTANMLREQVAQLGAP

[5] = CD spectra and thermal denaturation of peptide-only samples (helicity, homodimer Tm)
Description: Circular Dichroism (CD): An Applied Photophysics Chirascan was used for CD measurements, with a 200 μL sample in a 1 mm path length CD cell. Protein/DNA samples were suspended in 150 mM potassium phosphate, 150 mM potassium fluoride and 5 mM TCEP at pH 7.4 and were equilibrated for 30 minutes before measurement. […] These scans were averaged and converted to molar residue ellipticities (MRE). Thermal denaturation experiments were performed by measuring the ellipticity at 222 nm over a 1 to 90° C. gradient at 1° C. increments. Post-melt scans at 20° C. confirmed the transitions were reversible as they overlaid within 10% of the pre-melt scan.
Circular Dichroism (CD): An Applied Photophysics Chirascan was used for CD measurements, with a 200 μL sample in a 1 mm path length CD cell. Protein/DNA samples were suspended in 150 mM potassium phosphate, 150 mM potassium fluoride and 5 mM TCEP at pH 7.4 and were equilibrated for 30minutes before measurement. […] Thermal denaturation experiments were performed by measuring the ellipticity at 222 nm over a 1 to 90° C. gradient at 1° C. increments. Post-melt scans at 20° C. confirmed the transitions were reversible as they overlaid within 10% of the pre-melt scan.
Peptide helicity was determined by quantifying the CD signal at 222 nm of peptide only samples. Thermal denaturation experiments were then used to determine the Tm of peptide-c-Jun heterodimers, which was used as an approximate measure of target engagement. […] The same 60 amino acid c-Jun bZIP construct was used for all experiments, regardless of antagonist peptide length.

[6] = not given; remark: listed apart in the source
TRE DNA = experiment: CD control: peptide with TRE DNA; type: binding
Description: Circular Dichroism (CD): An Applied Photophysics Chirascan was used for CD measurements, with a 200 μL sample in a 1 mm path length CD cell. Protein/DNA samples were suspended in 150 mM potassium phosphate, 150 mM potassium fluoride and 5 mM TCEP at pH 7.4 and were equilibrated for 30 minutes before measurement. […] These scans were averaged and converted to molar residue ellipticities (MRE).

cJun = cJun (Homo sapiens, UniProt P05412, S292Y); experiment: CD dimer exchange experiments; conditions: A-FosW mixed with preformed HingeW/cJun heterodimer
Description: Circular Dichroism (CD): An Applied Photophysics Chirascan was used for CD measurements, with a 200 μL sample in a 1 mm path length CD cell. Protein/DNA samples were suspended in 150 mM potassium phosphate, 150 mM potassium fluoride and 5 mM TCEP at pH 7.4 and were equilibrated for 30 minutes before measurement. […] These scans were averaged and converted to molar residue ellipticities (MRE). Thermal denaturation experiments were performed by measuring the ellipticity at 222 nm over a 1 to 90° C. gradient at 1° C. increments.

cJun bZIP [7] = target: T4, cJun bZIP; experiment: CD spectra at 20 °C
cJun bZIP [8] = target: T4, cJun bZIP; experiment: ITC, antagonist injected into cJun, one site model
cJun bZIP [9] = target: T4, cJun bZIP; experiment: cell-based or functional assay
cJun bZIP [10] = target: T4, cJun bZIP; experiment: cell-based or functional assay
cJun bZIP [11] = target: T4, cJun bZIP; experiment: ITC (PEAQ-ITC), peptide injected into cJun, one site model
cJun bZIP [12] = target: T4, cJun bZIP; experiment: CD thermal denaturation, peptide 5 µM and c-Jun 5 µM
cJun bZIP [13] = target: T4, cJun bZIP; experiment: cell-based or functional assay
cJun bZIP [14] = target: T4, cJun bZIP; experiment: CD thermal denaturation
cJun bZIP [15] = target: T4, cJun bZIP

## TRE-mDHFR gene (15 TRE sites)
[1]; 4 uM TMP, 1 mM IPTG
  activity (fold reduction in colony count): 21

## WT-mDHFR gene
[1]; presumed nonspecific plasmid binding
  activity (fold reduction in colony count): 1.3

## MASTDTLQAETDQLEDEKYALQTEIANLLKEKEKLGAPHHHHHH [cFos LZ, human cFos leucine zipper domain construct]
[2]
  effect on TRE-mDHFR transcriptional block / colony numbers: no significant increase in colony numbers; also recorded: unable to effectively dissociate the cJun bZIP from TRE DNA

## MASLDELQAEIEQLEERNYALRKEIEDLQKQLEKLGAPHHHHHH [FosW]
[2]
  effect on TRE-mDHFR transcriptional block / colony numbers: no significant increase in colony numbers; also recorded: unable to effectively dissociate the cJun bZIP from TRE DNA
cJun bZIP [3]
  Tm (° C.) (CD): 54 °C

B1: TRE duplex (dsDNA)
DNA 1: GTCAGTCAGTGACTCAATCGGTCA
DNA 2: TGACCGATTGAGTCACTGACTGAC
HingeW
  binding result: no binding
A-FosW
  binding result: no binding

B2: cJun bZIP (protein)
chain: T4 chain
other
  Tm (° C.) (CD): 39.8 ° C.

B3: A-FosW (peptide)
peptide: T2 chain with V26E, V27Q, E29L, V31E, E33Q, E34A
notes: Recombinant, capped and C-terminally 6xHis-tagged; also called rationally designed A-FosW template; parent peptide
[2]
  effect on TRE-mDHFR transcriptional block / colony numbers: restore cell survival
cJun bZIP [3]; heterodimer with c-Jun, equimolar, 10 μM total
  Fraction helicity at 20° C. (CD): 38.7%
cJun bZIP [3]; heterodimer with cJun
  temperature of smaller initial transition (double transition): ~30 °C
cJun bZIP [3]
  Tm (° C.) (CD): 69.9 °C
cJun bZIP [3]; heterodimer with cJun vs average of component profiles
  ΔTm from component average (CD): 27.5 °C
cJun bZIP [4]
  Tm (° C.) (CD): 69.9 ° C.
  ΔTm from component average (CD): 27.5 ° C.
[5]; peptide alone
  Fraction helicity at 20° C. (CD): 40.1%
[5]; peptide alone (homodimer)
  Tm (° C.) (CD): 45.1 °C
[6]
  Tm (° C.) (CD): 45.1 ° C.
TRE DNA
  interaction with TRE DNA: no interaction
cJun
  dimer exchange: no dimer exchange had occurred
cJun bZIP [7]
  increase in α-helicity relative to the average of the two component spectra: 39%
cJun bZIP [8]
  Kd: 0.0883 µM
  TΔS (ITC): -26.9 kcal/mol
  ΔG (ITC): -9.56 kcal/mol
  ΔH (ITC): -36.5 kcal/mol
cJun bZIP [9]
  IC50, CD antagonism of cJun/TRE DNA (peak at ~281 nM): 16 µM
  IC50, EMSA of free TRE DNA band: 12.1 µM
  TBS assay colony numbers relative to TRE-mDHFR only: 60%

## EAEELVVEEDVLEEEIEQLEERNYALRAEICNLSCQ-NH2 (not fully specified; cysteine pairing not given here) [HingeW variant meta DBMBW, linear]
cJun bZIP [10]
  IC50 (µM), CD: 91.1 µM

B4: HingeW peptide variant 23 (peptide)
peptide: Ac-EAEELVVEEDVLEEEIEQLEERNYALRKEIKDLQDQ-NH2
modifications: lactam 31-35
SMILES: CC[C@H](C)[C@H](NC(=O)[C@H](CCC(=O)O)NC(=O)[C@H](CCCCN)NC(=O)[C@H](CCCNC(=N)N)NC(=O)[C@H](CC(C)C)NC(=O)[C@H](C)NC(=O)[C@H](Cc1ccc(O)cc1)NC(=O)[C@H](CC(N)=O)NC(=O)[C@H](CCCNC(=N)N)NC(=O)[C@H](CCC(=O)O)NC(=O)[C@H](CCC(=O)O)NC(=O)[C@H](CC(C)C)NC(=O)[C@H](CCC(N)=O)NC(=O)[C@H](CCC(=O)O)NC(=O)[C@@H](NC(=O)[C@H](CCC(=O)O)NC(=O)[C@H](CCC(=O)O)NC(=O)[C@H](CCC(=O)O)NC(=O)[C@H](CC(C)C)NC(=O)[C@@H](NC(=O)[C@H](CC(=O)O)NC(=O)[C@H](CCC(=O)O)NC(=O)[C@H](CCC(=O)O)NC(=O)[C@@H](NC(=O)[C@@H](NC(=O)[C@H](CC(C)C)NC(=O)[C@H](CCC(=O)O)NC(=O)[C@H](CCC(=O)O)NC(=O)[C@H](C)NC(=O)[C@H](CCC(=O)O)NC(C)=O)C(C)C)C(C)C)C(C)C)[C@@H](C)CC)C(=O)N[C@H]1CCCCNC(=O)C[C@@H](C(=O)N[C@@H](CCC(N)=O)C(N)=O)NC(=O)[C@H](CCC(N)=O)NC(=O)[C@H](CC(C)C)NC(=O)[C@H](CC(=O)O)NC1=O
notes: Synthetic, NΔ20 CΔ7; Best single lactamised peptide; also called cyclised form of 22/23
cJun bZIP [11]
  -TΔS: 14 kcal/mol
  Kd: 0.0866 µM
  Stoichiometry, n: 0.97
  ΔG: -9.66 kcal/mol
  ΔH: -23.6 kcal/mol
cJun bZIP [12]
  Tm (° C.) of peptide-c-Jun heterodimer: 65 ° C.
cJun bZIP [13]
  IC50 CD: 52.7 µM
cJun bZIP [9]
  fold lower IC50 than 11: 1.6 fold
cJun bZIP [14]
  heterodimer ΔTm against parent sequence 11: ~8 ° C.
  heterodimer ΔTm from lactamisation (23 against linear 22): ~9 ° C.

B5: FosW (peptide)
peptide: MASLDELQAEIEQLEERNYALRKEIEDLQKQLEKLGAPHHHHHH
modifications: not fully specified
notes: Recombinant, capped and C-terminally 6xHis-tagged; Lacks the acidic extension
cJun bZIP [15]
  heterodimer Tm: 54 ° C.
cJun bZIP [9]
  IC50, CD antagonism of cJun/TRE DNA (peak at ~281 nM): 120 µM

## EAEELVVEEDVLEEEIEQLEERNYALRSEICSLQCQ-NH2 (not fully specified; cysteine pairing not given here) [HingeW variant 0W, linear]
cJun bZIP [10]
  IC50 (µM), CD: 86.7 µM

## EAEELVVEEDVLEEEIEQLEERNYALRAEICNLSCQ-NH2 (linker 31-35 via mXylylene; not fully specified) [HingeW variant meta DBMBW, cyclised]
cJun bZIP [10]
  IC50 (µM), CD: 61.5 µM

## EAEELVVEEDVLEEEIEQLEERNYALRSEICSLQCQ-NH2 (linker 31-35 via mXylylene; not fully specified) [HingeW variant 0W, cyclised]
cJun bZIP [10]
  IC50 (µM), CD: 77.6 µM
